T1: hErbB3.mFc (soluble dimeric human ErbB3 extracellular domain fused to mouse Fc) (human)
T1 construct: called dimeric
T1 chain: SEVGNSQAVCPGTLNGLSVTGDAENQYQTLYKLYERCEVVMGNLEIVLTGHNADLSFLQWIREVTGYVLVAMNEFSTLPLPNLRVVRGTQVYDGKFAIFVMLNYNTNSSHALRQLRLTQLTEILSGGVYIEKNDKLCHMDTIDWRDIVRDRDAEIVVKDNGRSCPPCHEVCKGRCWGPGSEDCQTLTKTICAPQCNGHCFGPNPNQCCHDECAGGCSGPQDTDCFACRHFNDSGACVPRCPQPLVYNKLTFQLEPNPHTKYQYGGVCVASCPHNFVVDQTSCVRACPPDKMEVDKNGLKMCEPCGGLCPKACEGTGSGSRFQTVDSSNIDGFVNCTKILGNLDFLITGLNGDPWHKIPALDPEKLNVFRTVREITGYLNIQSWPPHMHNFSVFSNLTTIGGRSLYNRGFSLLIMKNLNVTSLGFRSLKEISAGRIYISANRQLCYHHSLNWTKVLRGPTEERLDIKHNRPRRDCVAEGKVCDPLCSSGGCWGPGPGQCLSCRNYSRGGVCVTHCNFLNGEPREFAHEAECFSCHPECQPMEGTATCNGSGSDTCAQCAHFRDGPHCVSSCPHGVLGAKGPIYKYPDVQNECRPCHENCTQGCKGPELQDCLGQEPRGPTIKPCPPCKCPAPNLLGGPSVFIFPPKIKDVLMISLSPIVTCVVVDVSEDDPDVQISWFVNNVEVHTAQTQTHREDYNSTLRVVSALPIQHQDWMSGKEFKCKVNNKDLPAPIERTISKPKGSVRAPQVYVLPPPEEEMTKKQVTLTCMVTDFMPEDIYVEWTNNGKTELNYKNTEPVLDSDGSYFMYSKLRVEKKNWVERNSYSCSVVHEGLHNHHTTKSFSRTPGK


Legend:
[1] = biological target: T2, hErbB3.hFc (soluble dimeric human ErbB3 extracellular domain fused to human Fc) (human); assay: SPR (Biacore), 25 C, mAb capture format
T2 construct: called dimeric
T2 sequence (chain, as listed by the source limits assumed): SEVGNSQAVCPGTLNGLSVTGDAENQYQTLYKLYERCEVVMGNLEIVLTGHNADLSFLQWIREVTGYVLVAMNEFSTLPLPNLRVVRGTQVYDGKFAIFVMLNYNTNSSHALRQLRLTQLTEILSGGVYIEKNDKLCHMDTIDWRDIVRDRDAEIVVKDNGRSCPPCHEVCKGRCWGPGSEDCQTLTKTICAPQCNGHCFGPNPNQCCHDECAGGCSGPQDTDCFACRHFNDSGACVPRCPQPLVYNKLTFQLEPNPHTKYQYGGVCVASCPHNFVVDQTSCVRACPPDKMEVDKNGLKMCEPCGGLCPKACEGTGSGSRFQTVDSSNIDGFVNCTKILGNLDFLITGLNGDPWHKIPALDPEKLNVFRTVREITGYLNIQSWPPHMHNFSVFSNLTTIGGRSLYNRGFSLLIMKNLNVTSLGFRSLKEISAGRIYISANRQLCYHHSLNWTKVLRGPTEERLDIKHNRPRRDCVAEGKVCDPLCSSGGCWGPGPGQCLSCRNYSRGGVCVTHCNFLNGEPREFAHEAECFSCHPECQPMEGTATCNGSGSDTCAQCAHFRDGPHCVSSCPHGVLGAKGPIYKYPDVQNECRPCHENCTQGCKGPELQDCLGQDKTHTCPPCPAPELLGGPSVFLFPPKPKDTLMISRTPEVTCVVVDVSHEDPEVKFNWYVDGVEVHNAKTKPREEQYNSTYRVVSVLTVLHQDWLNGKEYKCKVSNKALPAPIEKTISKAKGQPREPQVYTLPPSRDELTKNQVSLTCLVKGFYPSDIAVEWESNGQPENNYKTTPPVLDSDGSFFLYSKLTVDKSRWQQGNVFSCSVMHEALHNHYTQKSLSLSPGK
Protocol: (§1) (Tables 2-4). Measurements were conducted on a Biacore 2000 or T100 instrument. […] Kinetic association (kₐ) and dissociation (kd) rate constants were determined by processing and fitting the data to a 1:1 binding model using Scrubber 2.0 curve fitting software.

[2] = biological target: T3, hErbB3.mmh (soluble monomeric human ErbB3 extracellular domain with C-terminal myc-myc-hexahistidine tag) (human, UniProt P21860 20-642); assay: SPR (Biacore), 25 C, mAb capture format
Protocol: as §1

[3] = biological target: T2, hErbB3.hFc (soluble dimeric human ErbB3 …); assay: blocking ELISA: antibody + 50 pM ErbB3-hFc on neuregulin1b-coated plate
From the text: To further characterize anti-hErbB3 mAbs of the present invention, their ability to block ligand binding was examined via ELISA. […] Plates were washed and non-sequestered (plate bound) ErbB3 was detected with an anti-Fc poly conjugated with horseradish peroxidase (HRP). Plates were developed with TMB (3,3′,5,5′-tetramethylbenzidine) and neutralized with sulfuric acid before reading absorbance at 450 nm on a Victor X5 plate reader. Data analysis used a sigmoidal dose-response model within Prism™ software. […] Maximal blocking for each antibody was calculated by taking the difference in absorbance from zero to 50 nM antibody on the inhibition curve, divided by the difference in absorbance from 50 pM to zero ErbB3 on the dose curve.

[4] = biological target: T1, hErbB3.mFc (soluble dimeric human ErbB3 …); assay: SPR (Biacore), 25 C, mAb capture format
Protocol: as §1

[5] = biological target: T1, hErbB3.mFc (soluble dimeric human ErbB3 …); assay: SPR (Biacore), 37 C, mAb capture format
Protocol: as §1

[6] = biological target: T3, hErbB3.mmh (soluble monomeric human …); assay: SPR (Biacore), 37 C, mAb capture format
Protocol: as §1

Kd [1] | T½ [1] | koff [1] | kon [1] | Kd [2] | T½ [2] | koff [2] | kon [2] | IC50 [3] | Maximal Blocking (%) [3] | Kd [4] | T½ [4] | koff [4] | kon [4] | Kd [5] | T½ [5] | koff [5] | kon [5] | Kd [6] | T½ [6] | Binder | other results
0.0301 nM | 14.2 h | 1.36e-05 s⁻¹ | 451000 M⁻¹ s⁻¹ | 0.599 nM | 1.33 h | 0.000144 s⁻¹ | 241000 M⁻¹ s⁻¹ | 0.0249 nM | 85% |  |  |  |  |  |  |  |  |  |  | H2M1938N (antibody, V domains shown, Hybridoma chimeric antibody: human variable domains, mouse IgG2 Fc (H2M prefix)) VH: EVQLVESGGGVVRPGGSLRLSCAASGFTFDDYGMSWVRQVPGKGLEWVSGLNWNGGITGYTDSVKGRFTISRDNAKNSLYLQMNSLRAEDTAFYHCARDSGDQDAFDIWGQGTMVTVSS VL: QIVMTQSPATLSVSPGERATLSCRASQSITPYLAWYQQKPGQTPRLLIYGVSTRATGIPARFSGSGSGTEFTLTISSLQSEDFAVYYCQQYDNWYTFGQGTKLEIK | 
 |  |  |  | 0.0435 nM | 0.55 h | 0.000351 s⁻¹ | 8.1e+06 M⁻¹ s⁻¹ |  |  | 0.000943 nM | 12.5 h | 1.54e-05 s⁻¹ | 1.64e+07 M⁻¹ s⁻¹ | 0.00153 nM | 3.43 h | 5.62e-05 s⁻¹ | 3.68e+07 M⁻¹ s⁻¹ | 0.129 nM | 0.117 h | H4H1819N (antibody, V domains shown, Human IgG4 Fc (H4H prefix); same variable domains as H1M1819N) VH: EVQLVESGGGVVRPGGSLRLSCAASGFTFDDYAMHWVRQAPGKGLEWVAGISWNSGSIDYADSVKGRFTISRDNAKNSLYLQMNSLRAGDTALYYCAKDILDLDYYGLDVWGQGTTVTVSS VL: DIQMTQSPSSLSASVGDRVTITCRASQDISSYLAWYQQKPGKVPNLLIYDASSLQSGVPSRFSGSGSGTDFTLTLSSLQPEDFASYYCQNYNSAPYTFGQGTKLEIK | koff [6]: 0.00156 s⁻¹; kon [6]: 1.21e+07 M⁻¹ s⁻¹
1.09 nM | 2.77 h | 6.97e-05 s⁻¹ | 64100 M⁻¹ s⁻¹ | 6.59 nM | 0.683 h | 0.000285 s⁻¹ | 43200 M⁻¹ s⁻¹ | 0.527 nM | 91% |  |  |  |  |  |  |  |  |  |  | H2M1936N (antibody, V domains shown, Hybridoma chimeric antibody: human variable domains, mouse IgG2 Fc (H2M prefix)) VH: EMQLVESGGGLVQPDRSLRLSCAASGFNFDNYAIHWVRQAPGKGLEWVSGISWNSGNIGYADSVKGRFTISRDNAKNSLFLLMNSLRPDDSALYYCTRGYNWNALSPMDVWGQGTTVTVSS VL: DIQMTQSPSSLSASVGDRVTVTCRASQGISNYLAWYQQKPGKVPKLLIYAASTLQSGVPSRFSGSGSGTDFTLTISSLQPEDVASYYCQNYNSAPMTFGQGTKVEIK | 
0.0529 nM | 7.92 h | 2.43e-05 s⁻¹ | 460000 M⁻¹ s⁻¹ | 0.477 nM | 1.4 h | 0.000138 s⁻¹ | 289000 M⁻¹ s⁻¹ | 0.53 nM | 80% |  |  |  |  |  |  |  |  |  |  | H1M1940N (antibody, V domains shown, Hybridoma chimeric antibody: human variable domains, mouse constant domains (H1M prefix, mouse Fc)) VH: QVQVVESGGGVVQPGRSLRLSCAASGFTFSDYGMHWVRQAPGKGLEWVAIISYDGSNKYYADSVKGRFTVSRDNSKNTLYLQLDSLRPEDAAVFYCAREGAFNLDYYAMDVWGQGTTVTVSS VL: AIQMTQSPSSLSASVGDRVTITCRASQDIRNDLGWYQQKPGKAPNLLIYAASSLQSGVPSRFSGSGSGTDFTLTISSLQPEDFATYYCLQDSNYPLTFGGGTKVEIK | 
 |  |  |  | 0.051 nM | 1 h | 0.000192 s⁻¹ | 3.8e+06 M⁻¹ s⁻¹ |  |  | 0.000355 nM | 44.4 h | 4.33e-06 s⁻¹ | 1.22e+07 M⁻¹ s⁻¹ | 0.00189 nM | 5.43 h | 3.55e-05 s⁻¹ | 1.87e+07 M⁻¹ s⁻¹ | 0.167 nM | 0.183 h | H4H1821N (antibody, V domains shown, Human IgG4 Fc (H4H prefix); same variable domains as H2M1821N) VH: EVQLVESGGGLVQPGRSLRLSCAASGFTFDDYAMHWVRQAPGKGLEWVSSISWNSGSIGYADSVKGRFTISRDNAKNSLYLQMNSLKPEDTALYYCTKDTDYGDYLDAFDIWGQGTMVAVAS VL: not shown | koff [6]: 0.00108 s⁻¹; kon [6]: 6.49e+06 M⁻¹ s⁻¹
0.116 nM | 15.1 h | 1.27e-05 s⁻¹ | 110000 M⁻¹ s⁻¹ | 0.682 nM | 3.42 h | 5.63e-05 s⁻¹ | 82600 M⁻¹ s⁻¹ | 0.044 nM | 95% |  |  |  |  |  |  |  |  |  |  | H2M1937N (antibody, V domains shown, Hybridoma chimeric antibody: human variable domains, mouse IgG2 Fc (H2M prefix)) VH: QVQLQQWDAGLLKPSETLSLTCAVYGGSFSSYYWSWIRQPPGKGLEWIGEINHRGSTNYNPSLKSRVTISVDTSKNQFSLKLRSVTAADTAVYYCARGGVAARPDWHFFDYWGQGTLVTVSS VL: DIQMTQSPSSLSASVGDRVTITCRASQVIRNDLGWFQQRPGKAPKRLIYAASSLQSEVPSRFSGSGSGTEFTLTITSLQPEDFATYYCLQHNSYPLTFGQGTRLEIK | 

— patent US20140072563A1 (Regeneron, published 2014)
